Laboratory results reported in the RNAGym collection of RNA variant scans (doi:10.7554/elife.80360).

B1: Hairpin Ribozyme (parent)
chain: GUCCUCUUUCACGUGCGCGUGAAAGAGAGAAGUGAACCAGAGAAACACACGUUGUGGUAUAUUACCUGGUA

Variants of: B1
Assay: self-cleavage, relative activity (ratio to wild type); higher = more cleavage; co-transcriptional
Variant G51U U63G has a self-cleavage of 0.16. C50G G54C gave a self-cleavage of 0.634. U53C U55C gave a self-cleavage of 0.329. Variant U53C U55A has a self-cleavage of 0.34. For U53C U55G, the self-cleavage was 0.306. Variant A49C C65U has a self-cleavage of 0.08. A49U G69A gave a self-cleavage of 0.136. C48U A64U gave a self-cleavage of 0.11. With C48U A64C the self-cleavage was 0.255. With C48U A64G the self-cleavage was 0.0861. U53C G69U showed a self-cleavage of 0.378. In the case of U52C G69C, the self-cleavage is reported as 0.313. In the case of U53G C66A, the self-cleavage is reported as 0.131. With A49U G56A the self-cleavage was 0.136. U52G U60A gave a self-cleavage of 0.4. In the case of U52G U60G, the self-cleavage is reported as 0.298. Variant U52G G68A has a self-cleavage of 0.407. U52C C65G showed a self-cleavage of 0.426. With A49G C50G the self-cleavage was 0.166. With C50G A64U the self-cleavage was 0.19. Variant U53G G68A has a self-cleavage of 0.179. Variant G54A G57C has a self-cleavage of 0.149. Variant C50A U58G has a self-cleavage of 0.242. With A49G U55A the self-cleavage was 0.431. G51C U60A showed a self-cleavage of 0.589. With G51C U60C the self-cleavage was 1.23. Work on A49U A61U yielded a self-cleavage of 0.108. With A49U A61G the self-cleavage was 0.13. Work on U52A G56C yielded a self-cleavage of 0.124. U52A G56U showed a self-cleavage of 0.196. With G51C G56U the self-cleavage was 0.147. Variant C48U G57A has a self-cleavage of 0.147. For U52A A71C, the self-cleavage was 1.46. With U53A A61U the self-cleavage was 0.248. For G51C G69C, the self-cleavage was 0.28. In the case of U52C G54A, the self-cleavage is reported as 0.568. Variant G51U U55C has a self-cleavage of 0.245. Variant G51U U55A has a self-cleavage of 0.302. In the case of G51A A64G, the self-cleavage is reported as 0.666. Work on U52A A59U yielded a self-cleavage of 0.243. U52A C66G gave a self-cleavage of 0.149. Work on U52A C66U yielded a self-cleavage of 0.604. C50U G68C gave a self-cleavage of 0.246. For A49U U67G, the self-cleavage was 0.109. In the case of U53C A61U, the self-cleavage is reported as 0.377. With U53C A61G the self-cleavage was 0.254. U53A U60C showed a self-cleavage of 1.31. In the case of G51A U58G, the self-cleavage is reported as 1.12. With C48U A61C the self-cleavage was 0.128. U52A G57A showed a self-cleavage of 0.182. For U52A G57U, the self-cleavage was 0.267. Work on U52C U58A yielded a self-cleavage of 0.67. In the case of U52C C66U, the self-cleavage is reported as 0.626. With C50U U52G the self-cleavage was 0.318. Variant C50A U67A has a self-cleavage of 0.153. Variant C50A G69A has a self-cleavage of 0.152. Variant U53A U62C has a self-cleavage of 0.231. Variant U52C G57U has a self-cleavage of 0.207. For U53A G68U, the self-cleavage was 0.2. For U53A G68C, the self-cleavage was 0.249. For U53A G68A, the self-cleavage was 0.279. Variant A49C U55A has a self-cleavage of 0.164. In the case of C48U U55G, the self-cleavage is reported as 0.223. Variant C48U U55A has a self-cleavage of 0.196. A49C G57U gave a self-cleavage of 0.0763. Work on U53G U70A yielded a self-cleavage of 0.712. With U53G U70C the self-cleavage was 0.783. In the case of A49U G54U, the self-cleavage is reported as 0.36. Work on A49G G68A yielded a self-cleavage of 0.147. C50A C65U gave a self-cleavage of 0.179. Variant C50G C65A has a self-cleavage of 0.463. For C48G U70G, the self-cleavage was 0.0256. Work on U53C A64G yielded a self-cleavage of 0.616. In the case of A49U A64G, the self-cleavage is reported as 0.145. A49U A64C showed a self-cleavage of 0.163. Variant U53A C65G has a self-cleavage of 0.28. U53A C65U gave a self-cleavage of 0.241. With U53A C65A the self-cleavage was 0.901. For U53C G68A, the self-cleavage was 0.328. Work on U53C G68U yielded a self-cleavage of 0.361. In the case of U53C G68C, the self-cleavage is reported as 0.267. G51C C66G gave a self-cleavage of 0.206. With U52G U67A the self-cleavage was 0.212. Variant A49G A59U has a self-cleavage of 0.131. With A49C G69C the self-cleavage was 0.241. For A49G A61U, the self-cleavage was 0.217. Variant A49G A61G has a self-cleavage of 0.211. Work on U53C U62A yielded a self-cleavage of 0.119. In the case of U53C C66G, the self-cleavage is reported as 0.328. Variant C48U C65U has a self-cleavage of 0.154. With A49C A71G the self-cleavage was 0.177. For U53C U63C, the self-cleavage was 0.0362. U53C U63A gave a self-cleavage of 0.177. For U53C U63G, the self-cleavage was 0.144. G51U U52C showed a self-cleavage of 1. G54A G68A showed a self-cleavage of 0.206. In the case of C50A A61G, the self-cleavage is reported as 0.12. G51C U58A showed a self-cleavage of 0.653. U53A U63A gave a self-cleavage of 0.153. U53A U63G gave a self-cleavage of 0.249. U52C U60C gave a self-cleavage of 1.16. U52C U60G showed a self-cleavage of 0.55. In the case of G51A C65U, the self-cleavage is reported as 0.151. In the case of C50U G54A, the self-cleavage is reported as 0.864. G51A U62G gave a self-cleavage of 0.262. C50A U63G showed a self-cleavage of 0.2. For C50A U63A, the self-cleavage was 0.0698. G51U U67G gave a self-cleavage of 0.384. For C50U U70A, the self-cleavage was 0.266. For U53C G56A, the self-cleavage was 0.211. U53C G56C showed a self-cleavage of 0.149. U52A U60C showed a self-cleavage of 1.42. In the case of U52A U60A, the self-cleavage is reported as 0.988. A49G A71G gave a self-cleavage of 0.526. For A49G A71U, the self-cleavage was 0.397. Work on A49G A71C yielded a self-cleavage of 1.18. C50U G56A showed a self-cleavage of 0.203. A49C A59G gave a self-cleavage of 0.167. For A49C A59C, the self-cleavage was 0.168. Work on C48U G56U yielded a self-cleavage of 0.231. In the case of G51C U62A, the self-cleavage is reported as 0.141. G51C U62G gave a self-cleavage of 0.184. Work on C48U G68C yielded a self-cleavage of 0.247. With C48U G68A the self-cleavage was 0.244. In the case of U52C A61C, the self-cleavage is reported as 0.263. Variant U52C A61U has a self-cleavage of 0.226. With U52C A61G the self-cleavage was 0.253. G51U A64U showed a self-cleavage of 0.167. With A49U A71C the self-cleavage was 0.607. Work on C50U U53G yielded a self-cleavage of 0.242. With C50U U53C the self-cleavage was 0.261. In the case of U52G G56A, the self-cleavage is reported as 0.19. C50G C66G gave a self-cleavage of 0.0636. Work on G51C G54A yielded a self-cleavage of 0.136. Variant U53G A64G has a self-cleavage of 0.599. In the case of C50U A71C, the self-cleavage is reported as 0.925. For C50U A71U, the self-cleavage was 0.211. For A49U C65A, the self-cleavage was 0.188. Work on G51C G57C yielded a self-cleavage of 0.152. C50A U55A showed a self-cleavage of 0.6. C50A U55G gave a self-cleavage of 0.419. A49U A59G showed a self-cleavage of 0.091. U53G U63A gave a self-cleavage of 0.13. Variant U53G U63C has a self-cleavage of 0.241. Variant U53C U70G has a self-cleavage of 0.765. Work on U53C U70C yielded a self-cleavage of 1.04. Variant A49G U67C has a self-cleavage of 0.125. A49G U67G gave a self-cleavage of 0.195. For A49C A61G, the self-cleavage was 0.172. Variant U53G C65G has a self-cleavage of 0.0347. Work on U53G C65U yielded a self-cleavage of 0.413. For A49G G69A, the self-cleavage was 0.172. Variant A49G G69C has a self-cleavage of 0.186. U52A U53G gave a self-cleavage of 1.01. For U52A U53A, the self-cleavage was 0.817. With A49C U52G the self-cleavage was 0.14. With A49C U52A the self-cleavage was 0.0356. C50G G69U gave a self-cleavage of 0.156. Work on A49U C50A yielded a self-cleavage of 0.293. Variant A49U C50G has a self-cleavage of 0.193. C50A G51A gave a self-cleavage of 0.288. For C50A G51C, the self-cleavage was 0.36. In the case of C50G U67G, the self-cleavage is reported as 0.101. With C50G U67A the self-cleavage was 0.274. In the case of U53C A71G, the self-cleavage is reported as 1.05. In the case of U53C A71C, the self-cleavage is reported as 1.26. Work on U53A U55A yielded a self-cleavage of 0.0855.
